The nature of this data set: protein stability index of a GFP-peptide fusion (GPS, HEK-293T) (PSI 1-6); higher = more stable. To be noted: c terminus: a fixed tail appended.

± gives the standard deviation.
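Note: 24-mer peptide tiles fused after GFP, lentivirally expressed, FACS-sorted into six equal bins by GFP/DsRed ratio, decoded by Illumina sequencing, PSI is the read-weighted mean bin number.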

For SEEGQNGSSPKSKTKWTKEDGHRT [ADD1], the protein stability index stood at 5.36 ± 0.29 (treatment: DMSO) and 5.36 ± 0.23 (treatment: MLN4924 1 uM, 8 h).

For SFMDGYKQKNAYIGTQGPLENTYR [PTPN9], the protein stability index by setting is: (treatment: DMSO) 3.04 ± 0.16; (treatment: MLN4924 1 uM, 8 h) 2.92 ± 0.24.

Sequence SFQDNLHNRKKHLNGLQHLKAKKV [ZMAT5] displayed a protein stability index (treatment: DMSO) of 3.51 ± 0.46 and a protein stability index (treatment: MLN4924 1 uM, 8 h) of 3.49 ± 0.23.

Turning to SGASPKESTNPEKAHETLHQSLSL [CDC25A], the protein stability index worked out at 4.95 ± 0.12 (treatment: DMSO) and 4.83 ± 0.11 (treatment: MLN4924 1 uM, 8 h).

Consider SGYAGELGFRAFSGSGNRLDGKKK [UFD1], for which the protein stability index by setting is: (treatment: DMSO) 4.89 ± 0.069; (treatment: MLN4924 1 uM, 8 h) 4.74 ± 0.26.

Take SGYGFRPSMVSGGYVANSSNCISG [KRT71]: the protein stability index (treatment: DMSO) worked out at 2.82 ± 0.2 and the protein stability index (treatment: MLN4924 1 uM, 8 h) is 2.73 ± 0.16.

In the case of SHCSQLTTLSFYGNSISISALQSL [PRAME], the protein stability index is, setting by setting: (treatment: DMSO) 2.87 ± 0.72; (treatment: MLN4924 1 uM, 8 h) 2.78 ± 0.58.

In the case of SHPDTSYYIRYRGAVYADSGNFER [FEM1A], the protein stability index is, setting by setting: (treatment: DMSO) 2.88 ± 0.38; (treatment: MLN4924 1 uM, 8 h) 2.83 ± 0.28.

As to SIMSTGIVQGSSGAQGSGGGSTSA [CARM1], the protein stability index (treatment: DMSO) came out at 4.85 ± 0.24 and the protein stability index (treatment: MLN4924 1 uM, 8 h) is 5.12 ± 1.

As for SKHLKEMYQELMEMCHKPDVELLQ [TRIM43], the protein stability index (treatment: DMSO) was found to be 2.71 ± 0.26 and the protein stability index (treatment: MLN4924 1 uM, 8 h) turned out to be 2.7 ± 0.51.

As to SKILSSKSKAYTVVGTPCYISPEL [NEK8], the protein stability index worked out at 2.82 ± 0.12 (treatment: DMSO) and 2.88 ± 0.37 (treatment: MLN4924 1 uM, 8 h).

As for SKKFKNCFQSCLCCCCYQSKSLMT [EDNRA], the protein stability index runs as follows: (treatment: DMSO) 2.78 ± 0.1; (treatment: MLN4924 1 uM, 8 h) 2.84 ± 0.15.

Regarding SKLASNGTPMGTFAPLWEVFRVSS [FCHO1], the protein stability index is 2 ± 0.3 (treatment: DMSO) and 2.26 ± 0.22 (treatment: MLN4924 1 uM, 8 h).

Turning to SKLDTTKALNLLPANTQINDIRIF [VPS39], the protein stability index (treatment: DMSO) is 2.55 ± 0.33 and the protein stability index (treatment: MLN4924 1 uM, 8 h) was found to be 2.66 ± 0.31.

Regarding SKLKMLERKGWLAPSPGVKEQAIW [PKD2L1], the protein stability index by setting is: (treatment: DMSO) 2.26 ± 0.35; (treatment: MLN4924 1 uM, 8 h) 2.54 ± 0.3.

On to SKVLSLQDLCCRTIVSCTPVHLVD [RAB40A], for which the protein stability index is, setting by setting: (treatment: DMSO) 3.08 ± 0.27; (treatment: MLN4924 1 uM, 8 h) 2.98 ± 0.31.

As for SLADQMSLLQSAWMEILILGVVYR [ESRRG], the protein stability index was determined as 2.88 ± 0.55 (treatment: DMSO) and 2.86 ± 0.42 (treatment: MLN4924 1 uM, 8 h).

Take SLGELCHPVPLSFEPVKSFFKGLV [TRIM14]: the protein stability index was 2.47 ± 0.7 (treatment: DMSO) and 1.89 ± 0.17 (treatment: MLN4924 1 uM, 8 h).

As to SLKAPGARGPGPEGGGGGSYFSGQ [JUNB], the protein stability index is 4.41 ± 0.45 (treatment: DMSO) and 4.67 ± 0.24 (treatment: MLN4924 1 uM, 8 h).

The sequence SLNKQIAQLQDFVRAKGSQSGRHL [STX5] gave a protein stability index (treatment: DMSO) of 3.08 ± 0.23 and a protein stability index (treatment: MLN4924 1 uM, 8 h) of 3.14 ± 0.55.

In the case of SLQMSSAEMPHTETVSPLPSSMDL [NANOGP8], the protein stability index is 4.93 ± 0.15 (treatment: DMSO) and 4.94 ± 0.14 (treatment: MLN4924 1 uM, 8 h).

SLSAALLTAALLTFDTGCLTLSQY [POMT2]: the protein stability index turned out to be 3.29 ± 0.32 (treatment: DMSO) and 3.11 ± 0.43 (treatment: MLN4924 1 uM, 8 h).

As for SLSSTATVLLVLEDEDPEEMPKSS [PCDHGC5], the protein stability index is, setting by setting: (treatment: DMSO) 4.24 ± 0.12; (treatment: MLN4924 1 uM, 8 h) 4.08 ± 0.32.

For SLTLEDVAVDFTWEEWQFLSPAQK [ZNF649], the protein stability index by setting is: (treatment: DMSO) 3.83 ± 0.11; (treatment: MLN4924 1 uM, 8 h) 3.95 ± 0.12.

On to SLVLILSLSYTVLIVGRIAIGVSI [SLC2A12], for which the protein stability index runs as follows: (treatment: DMSO) 2.94 ± 0.2; (treatment: MLN4924 1 uM, 8 h) 3.41 ± 0.33.

In the case of SMNRVKNISDADVHNAMDNYECNL [FEM1B], the protein stability index by setting is: (treatment: DMSO) 4.18 ± 0.29; (treatment: MLN4924 1 uM, 8 h) 4.3 ± 0.29.

In the case of SNLHRHQRTHTGEKPYKCPECGEI [ZNF263], the protein stability index (treatment: DMSO) came out at 4.22 ± 0.41 and the protein stability index (treatment: MLN4924 1 uM, 8 h) worked out at 4.53 ± 0.22.

SNSLSSAEPLKEDKPVTGPRNKTE [ATF6] came in with a protein stability index (treatment: DMSO) of 5.67 ± 0.1 and a protein stability index (treatment: MLN4924 1 uM, 8 h) of 5.59 ± 0.3.

Consider SPKRQLQFYRNLGKSGLRVSCLGL [KCNAB2], for which the protein stability index came to 2.3 ± 0.41 (treatment: DMSO) and 2.18 ± 0.12 (treatment: MLN4924 1 uM, 8 h).

For the sequence SPPAAPCPPPPGPAAAPEGDWARL [ZBED3], the protein stability index amounted to 5.08 ± 0.16 (treatment: DMSO) and 5.07 ± 0.063 (treatment: MLN4924 1 uM, 8 h).

Turning to SPPVPGPSAALTTMQLFSKQNPSR [FBXO28], the protein stability index is, setting by setting: (treatment: DMSO) 4.22 ± 0.42; (treatment: MLN4924 1 uM, 8 h) 4.33 ± 0.23.

SPSESSETVLALVNCISPLKYFSD [DENND6A] came in with a protein stability index (treatment: DMSO) of 2.78 ± 0.3 and a protein stability index (treatment: MLN4924 1 uM, 8 h) of 2.8 ± 0.35.

Regarding SQENSINPIQKEEDEGVDLSEGSS [SPANXN3], the protein stability index was found to be 5.5 ± 0.2 (treatment: DMSO) and 5.64 ± 0.084 (treatment: MLN4924 1 uM, 8 h).

As to SQNSFLVQEVMEEEWNALQSVENC [RPAIN], the protein stability index by setting is: (treatment: DMSO) 4.53 ± 0.29; (treatment: MLN4924 1 uM, 8 h) 4.52 ± 0.32.

SQQLQLIDEQDSYIQSRADTMQNI [STX5]: the protein stability index by setting is: (treatment: DMSO) 4.59 ± 0.21; (treatment: MLN4924 1 uM, 8 h) 4.74 ± 0.26.

For SRDSAAITHSTYSLPASSYSQDPV [NOL4L], the protein stability index runs as follows: (treatment: DMSO) 4.54 ± 0.12; (treatment: MLN4924 1 uM, 8 h) 4.62 ± 0.15.

Source of the values: the supplement of paper PMC10567573.
